The results in this text go back to publication PMC10636607 (2023).

What all share (assay): BLI
On the technique in general: BLI is a label-free optical method that tracks binding on a fibre tip over time.

Assay [1] has as its target T1, biotinylated SARS-CoV-2 fusion peptide (SARS-CoV-2, biotin on the N-terminus).
T1 peptide: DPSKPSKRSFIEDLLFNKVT

For assay [2], the target named is T2, biotinylated influenza hemagglutinin (HA) from H1N1 A/California/07/2009 (influenza A virus H1N1 …).
Assay [3] has as its target T3, biotinylated C-terminal αTSR domain of P. falciparum circumsporozoite protein (P. falciparum, UniProt Q7K740 310-375, biotinylated).
T3 chain: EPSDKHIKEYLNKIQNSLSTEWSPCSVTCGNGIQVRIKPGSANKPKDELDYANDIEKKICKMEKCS

Assay [4] deals with T2, biotinylated influenza hemagglutinin …. The source holds these as a separate data set.
Assay [5] deals with His6-tagged SARS-CoV-2 receptor-binding domain (SARS-CoV-2, UniProt P0DTC2 319-541).
The target of assay [6] is HCV (isolate H77) E2 domain protein (hepatitis C virus (isolate H77)).
In assay [7] the target is His-tagged HIV Env MPER peptide (HIV).

Where two headings read alike, the source gives them in different places.

B1: COV44-62 Fab (WT) (Fab, V domains shown)
VH: QMQLMQSGAEVKKPGASVTVSCKASGDTFSDYRIHWVRQAPGQGLEWMGRMNPKSGDTNFAQKFQGRVTMTRDMSINTAYMTLSGLTFDDTALYYCASLLIVGGFDPLDDFEVWGQGTMVTISS
VL: QSALTQPPSASGSPGQSVTISCSGTSSDVGGYNFVSWYQHHPGKAPKILIYEVTKRPSGVPDRFSGSKSGNTASLTVSGLQAEDEADYYCSSYGGTNNLLFGGGTKLTVL
For orientation: Kd means the concentration at which binding is half-saturated. Turning to B1, in assay [1], the affinity, expressed as Kd, was 26 nM.

B2: 5J8 Fab (WT) (Fab, V domains shown)
VH: EVQLVESGPGLVKPSDILSLTCAVSGYSISSNYYWGWIRQPPGKGLEWIGSIYHSGSTYYKPSLESRLGISVDTSKNQFSLKLSFVSAADTAVYYCARHVRSGYPDTAYYFDKWGQGTLVTVSS
VL: SYVLTQPPSVSVAPGETARISCGGNNIGTKVLHWYQQTPGQAPVLVVYDDSDRPSGIPERFSGSNSGNTATLTISRVEVGDEADYYCQVWDISTDQAVFGGGTKLTVL
In turn, B2 registered a dissociation constant (Kd) in assay [2] of 4 nM.

B3: Fab234 (WT) (Fab, V domains shown)
VH: EVQLVESGGGLVKPGGSLRLSCAASGFNFSTHIMNWVRQAPGKGLEWVSSISSSGTYIYYADSMKGRFTISRDNPKNSLYLQMNSLRAEDTAVYYCARARGFIQFHYYMDVWGKGTTVAVSS
VL: SYVLTQPPSVSVAPGKTARITCGGNNIGSKSVHWHQQRPGQAPVLVVYDDKIRPSGIPERFSGSNSGNTATLIISRVEAGDEADYYCQVWHSSSDPVVFGGGTKLTVL
Take B3: binding in assay [3] was put at a Kd of 0.2 nM.

B4: 3E1 Fab (WT) (Fab, V domains shown)
VH: QVQLQESGPGLVKPSETLSLTCSVSGASISSYYWIWIRQPAGKGLEWIGRFYTSGSPNYNPSLRSRVTMSVDTSKNQFSLKLTSVTAADTAVYYCAREEHITFGGVIVRYWGQGTLVTVSP
VL: DIQMTQSPATLSASVGDRVSITCRASQSISSWLAWYQQKPGKAPKLLIYKASSLESGVPSRFSGSGSGSEFTLTISSLQPDDFAIYYCQQYNSYPWTFGQGTKVEIK
With B4, in assay [4], binding was characterised by a dissociation constant (Kd) of 6.9 nM.

B5: GAR12 Fab (WT) (Fab, V domains shown)
VH: EVQLVQSGGGLVQPGGSLRLSCAASGFTFSSYAMSWVRQAPGKGLEWVLSISGSGGSTYYADSVKGRFTISIDNSKKTVYLQMNSLRAEDTAVYYCAKSGEQQLVQAEYFHHWGQGTLVTVSS
VL: DIQMTQSPSTLSASVGDRVTITCRASQSIGRWLAWYQQKPGKAPKLLIYDASSLESGVPSRFSGSGFGTEFTLTISSLQPDDFATYYCQQCDSLLTFGGGTKLEIK
Molecule B5 showed a Kd in assay [5] of 3.5 nM.

B6: GAR12 Fab VL D50K (Fab, V domains shown)
VH: EVQLVQSGGGLVQPGGSLRLSCAASGFTFSSYAMSWVRQAPGKGLEWVLSISGSGGSTYYADSVKGRFTISIDNSKKTVYLQMNSLRAEDTAVYYCAKSGEQQLVQAEYFHHWGQGTLVTVSS
VL: DIQMTQSPSTLSASVGDRVTITCRASQSIGRWLAWYQQKPGKAPKLLIYKASSLESGVPSRFSGSGFGTEFTLTISSLQPDDFATYYCQQCDSLLTFGGGTKLEIK
For B6, in assay [5], the Kd amounted to 153 nM.

B7: HC84.26.5D Fab (WT) (Fab, V domains shown)
VH: VQPVQSGAEVKKPGSSVKVSCEASGGTHSNYVITWVRQAPGQGLEWMGGFIPDFRTAMYAQGFQGRVTITADESTSLAYMELTNLRSEDTAVYYCARGPLSRGYYDYWGPGTLVTVSS
VL: YVLTQPPSVSVAPGQTASITCSGDKLGDKYVSWYQQRPGQSPVLVLYQDSKRPSGIPERFSGSNSGNTATLTISGTQAMDEADYYCQAWDSSALVFGGGTKLTVL
In turn, B7 had a Kd in assay [6] of 0.9 nM.

B8: 4E10 Fab (WT) (Fab, V domains shown)
VH: QVQLVQSGAEVKRPGSSVTVSCKASGGSFSTYALSWVRQAPGRGLEWMGGVIPLLTITNYAPRFQGRITITADRSTSTAYLELNSLRPEDTAVYYCAREGTTGWGWLGKPIGAFAHWGQGTLVTVSS
VL: EIVLTQSPGTQSLSPGERATLSCRASQSVGNNKLAWYQQRPGQAPRLLIYGASSRPSGVADRFSGSGSGTDFTLTISRLEPEDFAVYYCQQYGQSLSTFGQGTKVEVK
B8 came in with a Kd in assay [7] of 9.1 nM.
